A short description of series [1]: Proteolytic cleavage of NDM in 2% human chyme or porcine pancreatic elastase, N-terminal sequencing of fragments. The format is in vitro ADME. Conditions: 500 ug/mL in 2% mixed human chyme. The procedure:
The loss of NDM activity upon incubation with human chyme was due to the proteolytic cleavage of NDM by endogenous proteases present in human chyme. To map the cleavage sites within the NDM protein, NDM ([…]) was incubated with 2% mixed human chyme (human chyme diluted with incubation buffer, 20 mM Hepes pH 6.2; 150 mM NaCl, 100 uM ZnSO4) for times ranging from 0 to 180 minutes. Twenty microliters of each sample (1 ug) was removed and transferred to 20 μL of 2× denaturing sample buffer for a final concentration of 25 ng/μL. The samples were boiled and 10 μL (250 ng of NDM) was subjected to analysis by SDS-PAGE. NDM was rapidly degraded, in 0-15 minutes, into 5 distinct cleavage fragments (FIG. 26). […]
To map the proteolytic cleavage sites of the NDM fragments, NDM was incubated with 2% mixed human chyme as described for 0 or 15 minutes. […] The NDM digestions were analyzed by SDS/PAGE, the gel equilibrated in 1× Tris-Glycine transfer buffer and the proteins were transferred to an equilibrated Sequi-Blot PVDF membrane by wet transfer in Tris-glycine buffer. […] The isolated fragments were analyzed by N-terminal sequencing of the first 5 amino acids using a Perkin Elmer Applied Biosystems Model 494 Procise protein/peptide sequencer with an on-line Perkin Elmer Applied Biosystems Model 140C PTH Amino Acid Analyzer. […]

Series [2] in a line: P2A stability in human chyme (CENTA). The format is in vitro ADME. The protocol:
The stability of purified P2A when incubated in human chyme at 37° C. was evaluated by assessing aliquots withdrawn from incubated samples at 0, 0.5, 1, 2, 3, 4, 5, and 6 hours for beta-lactamase activity using a CENTA beta-lactamase substrate. Five different chyme specimens were used for evaluation of stability. The mixed chyme sample contained equal volumes of each of the five chime specimens mixed together. Chyme samples were characterized for pH, liquid content, and protease activity (Table 20).

The nature of series [3]: Oral P2A and intravenous ceftriaxone in jejunal-fistulated dogs. It counts as in vivo, laboratory beagles. Conditions: peroral P2A 2.5 mg/kg, intravenous ceftriaxone 30 mg/kg, omeprazole. The procedure:
The ability of P2A to degrade ceftriaxone in the dog intestinal tract was evaluated using laboratory beagles that had permanent jejunal fistulas. The fistulas allowed the repeated collection of jejunal chyme specimens from these animals. Dogs were treated with peroral P2A (2.5 mg/kg) in a liquid formulation (PBS buffer), and/or intravenous ceftriaxone (30 mg/kg). A single dose of omeprazole (10 mg) was delivered orally to each dog prior to treatment with ceftriaxone and/or P2A to inhibit the HCl activity in the stomach to potentially reduce P2A degradation. Serum samples were collected and serum ceftriaxone levels quantified. Jejunal chyme samples were collected and ceftriaxone and P2A levels were quantified. Ceftriaxone levels in serum and chyme were measured using a plate diffusion method using ceftriaxone susceptible Micrococcus luteus TS504 as the test strain. P2A activity levels in chyme were determined spectrophotometrically using meropenem as a substrate. Meropenem hydrolysis was monitored at a wavelength of 297 nm.

A short description of series [4]: P2A enteric-coated pellets and intravenous cefotaxime in jejunal-fistulated dogs. The format is in vivo, laboratory beagles. Conditions: enteric-coated pellets, 0.5 mg/kg or 0.25 mg/kg P2A, intravenous cefotaxime 120 mg/kg. The protocol: An enteric-coated pellet formulation of P2A was produced using methods similar to that used successfully for the production of the P1A enteric-coated pellets (e.g. sucrose core particles, pH-dependent polymer Eudragit L 30 D-55 coating, see Tarkkanen, Antimicrobial Agents and Chemotherapy, June 2009, p. 2455-2462, the entire contents of which are hereby incorporated by reference).
The ability of P2A to degrade cefotaxime in the dog intestinal tract was evaluated using laboratory beagles that had permanent jejunal fistulas. The fistulas allowed the repeated collection of jejunal chyme specimens from these animals. Dogs were treated with peroral P2A enteric-coated pellets at two doses, 0.5 mg/kg or 0.25 mg/kg of P2A content and/or intravenous cefotaxime (120 mg/kg). The dosing was performed twice. Animals were fed 20 minutes before P2A was delivered orally. Each animal received 3-5 P2A capsules, dependent on the P2A dose and the body weight. Cefotaxime was delivered intravenously 10 minutes after P2A administration. […] Cefotaxime levels in chyme were measured using a plate diffusion method using cefotaxime susceptible Micrococcus luteus TS504 as the test strain. P2A activity levels in chyme were determined spectrophotometrically using meropenem as a substrate. Meropenem hydrolysis was monitored at a wavelength of 297 nm.

Series [5] is described as follows: P2A concentration estimate and specific activity in cell lysates (CENTA assay, P2A protein standard). Conditions: BLR (DE3) P2A Clone 1 lysate, replicates 1 and 2. It counts as biochemical. The procedure:
To achieve an estimate of the amount of P2A protein in each of the lysates, dilutions of the lysates (5 ul, 2.5 ul, 1.3 ul, and 0.63 ul) were evaluated on SDS/PAGE compared to dilutions of a purified P2A standard protein (2.0 ug, 1.0 ug, 0.5 ug, 0.25 ug, 0.13 ug). Based on the P2A protein band intensities, an estimate of the amount of P2A protein in each of the lysates was obtained. The biological activity of the P2A protein in the cell lysates under the different lysing conditions was evaluated using the CENTA chromogenic assay compared to the biological activity of the P2A protein standard. The biological activity was normalized based on the P2A protein concentration estimate and an estimated P2A specific activity was obtained. […] The P2A expression cassette without the leader will be used for future studies.
Based on the P2A protein band intensities, an estimate of the amount of P2A protein in each of the lysates was obtained. The biological activity of the P2A protein in these cell lysates was evaluated using the CENTA chromogenic assay compared to the biological activity of the P2A protein standard. The biological activity was normalized based on the P2A protein concentration estimate and an estimated P2A specific activity was obtained.

Several values for one entry are separate records, joined by “and”; a condition that tells them apart may be missing. Equal entries are not always repeated.

B1: NDM: New Delhi metallo-β-lactamase NDM-1; NDM-68 = product of strain STY-NP1602-68 (STII Δ35, N-terminal GQQMETG) (protein)
chain: GQQMETGDQRFGDLVFRQLAPNVWQHTSYLDMPGFGAVASNGLIVRDGGRVLVVDTAWTDDQTAQILNWIKQEINLPVALAVVTHAHQDKMGGMDALHAAGIATYANALSNQLAPQEGMVAAQHSLTFAANGWVEPATAPNFGPLKVFYPGPGHTSDNITVGIDGTDIAFGGCLIKDSKAKSLGNLGDADTEHYAASARAFGAAFPKASMIVMSHSAPDSRAAITHTARMADKLR
As for B1, in series [1], the “time at which protein and fragments were undetectable” value was 60 to 90 min; the “time of degradation into 5 distinct cleavage fragments” value was 0 to 15 min.

B2: P2A: broad spectrum carbapenemase, class B metallo-enzyme requiring zinc, SEQ ID NO: 37; P2A-21 = product of strain SYT-PP0602-21 (protein)
chain: ETGTISISQLNKNVWVHTELGYFNGEAVPSNGLVLNTSKGLVLVDSSWDNKLTKELIEMVEKKFQKRVTDVIITHAHADRIGGITALKERGIKAHSTALTAELAKNSGYEEPLGDLQTITSLKFGNTKVETFYPGKGHTEDNIVVWLPQYQILAGGCLVKSAEAKDLGNVADAYVNEWSTSIENVLKRYGNINSVVPGHGEVGDKGLLLHTLDLLK
For the molecule B2, in series [2] (chyme 3 (pH 5.6)), the “activity in chyme 3 sample” value was “rapidly declined”. Also, the “stability in pH-adjusted chyme 3” value in series [2] (chyme 3 adjusted to pH 7.0 using NaOH) is “improved”. Besides, the “beta-lactamase activity in individual chyme samples” value in series [2] (five individual human chyme samples, 100 uM ZnSO4) was “relatively stable in four of five individual chyme samples”. The “beta-lactamase activity in mixed chyme without additional zinc” value in series [2] (mixed human chyme, no added zinc, 37° C.) is “declined more rapidly”. In series [3], the “ceftriaxone in jejunal chyme” value is recorded as “degraded ceftriaxone” and the “effect on serum levels of ceftriaxone” value is recorded as “does not reduce serum levels of ceftriaxone”. Also, in series [4], the “cefotaxime degradation in the intestinal tract” value is “degraded cefotaxime” and the “overall cefotaxime levels in chyme” value is “lower overall levels of cefotaxime in their chyme”. In series [5] (induction 18 o/n), the “% Activity Compared to P2A standard” value is 103% and 156%; the “P2A-lactamase Activity” value was 0.21 mg/mL and 0.16 mg/mL. Moreover, in series [5] (induction 25 on), the “% Activity Compared to P2A standard” value is 148% and 135%; the “P2A-lactamase Activity” value is 0.30 mg/mL and 0.27 mg/mL. In series [5] (induction 37 3 hrs), the “% Activity Compared to P2A standard” value was 131% and 182%; the “P2A-lactamase Activity” value is 0.13 mg/mL and 0.18 mg/mL.

These data come from patent US11123413B2, “Carbapenemases for use with antibiotics for the protection of the intestinal microbiome” (priority 2015, dated 2021).
